Assay [1] concerns the target T1, GST-PTP1B Non-Mutated (Cys215) (Homo sapiens, UniProt P18031).
T1 construct: made in house; host or cells: E. coli
T1 sequence (P18031 1-320): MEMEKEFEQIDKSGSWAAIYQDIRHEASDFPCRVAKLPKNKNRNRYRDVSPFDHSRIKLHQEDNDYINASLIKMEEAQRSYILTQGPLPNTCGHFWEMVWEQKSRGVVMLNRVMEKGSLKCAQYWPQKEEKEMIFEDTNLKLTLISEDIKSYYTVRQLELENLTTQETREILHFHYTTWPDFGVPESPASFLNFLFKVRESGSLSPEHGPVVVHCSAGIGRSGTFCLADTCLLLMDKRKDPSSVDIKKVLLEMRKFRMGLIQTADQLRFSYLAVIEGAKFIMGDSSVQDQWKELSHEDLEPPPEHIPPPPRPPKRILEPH
As to the kind of experiment: GST-PTP1B SPA binding assay, non-mutated (Cys215) enzyme; competition with tritiated BzN-EJJ-CONH2. The note with it: for IC50: non-mutated (Cys215) GST-PTP1B. The procedure:
(§1) Enzyme: Human recombinant PTPLB, containing ammo acids 1-320, (Seq. ID No. 1) fused to GST enzyme (glutathione S-transferase) purified by affinity chromatography. Wild type (Seq. ID No. 1) contains active site cysteine(215), whereas mutant (Seq. ID No. 7) contains active site serine(215).
(§2) Tritiated peptide: Bz-NEJJ-CONH2, Mwt. 808, empirical formula, C32H32T2O12P2F4
(§3) To each well is added the following solutions @ 25° C. in the following chronological order:
(§4) 1. 110 μl of assay buffer.
(§5) 2. 10 μl. of 50 nM tritiated BzN-EJJ-CONH2 in assay buffer (1X) @ 25° C.
(§6) 3. 10 μl. of testing compound in DMSO at 10 different concentrations in serial dilution (final DMSO, about 5% v/v) in duplicate @ 25° C.
(§7) 4. 10 μl. of 3.75 μg/ml purified human recombinant GST-PTP1B in enzyme dilution buffer.
(§8) 5. The plate is shaken for 2 minutes.
(§9) 6. 10 μl. of 0.3 μg/ml anti-glutathione S-transferase (anti-GST) rabbit IgG (Molecular Probes) diluted in antibody dilution buffer @ 25° C.
(§10) 7. The plate is shaken for 2 minutes.
(§11) 8. 50 μl. of protein A-PVT SPA beads (Amersham) @ 25° C.
(§12) 9. The plate is shaken for 5 minutes. The binding signal is quantified on a Microbeta 96-well plate counter.
(§13) 10. The non-specific signal is defined as the enzyme-ligand binding in the absence of anti-GST antibody.
11. 100% binding activity is defined as the enzyme-ligand binding in the presence of anti-GST antibody, but in the absence of the testing ligands with the non-specific binding subtracted.
12. Percentage of inhibition is calculated accordingly.
13. IC50 value is approximated from the non-linear regression fit with the 4-parameter/multiple sites equation (described in: “Robust Statistics”, New York, Wiley, by P. J. Huber (1981) and reported in nM units.

The target in a further assay is T2, PTP1B (Homo sapiens, UniProt P18031).
T2 sequence (P18031 1-435): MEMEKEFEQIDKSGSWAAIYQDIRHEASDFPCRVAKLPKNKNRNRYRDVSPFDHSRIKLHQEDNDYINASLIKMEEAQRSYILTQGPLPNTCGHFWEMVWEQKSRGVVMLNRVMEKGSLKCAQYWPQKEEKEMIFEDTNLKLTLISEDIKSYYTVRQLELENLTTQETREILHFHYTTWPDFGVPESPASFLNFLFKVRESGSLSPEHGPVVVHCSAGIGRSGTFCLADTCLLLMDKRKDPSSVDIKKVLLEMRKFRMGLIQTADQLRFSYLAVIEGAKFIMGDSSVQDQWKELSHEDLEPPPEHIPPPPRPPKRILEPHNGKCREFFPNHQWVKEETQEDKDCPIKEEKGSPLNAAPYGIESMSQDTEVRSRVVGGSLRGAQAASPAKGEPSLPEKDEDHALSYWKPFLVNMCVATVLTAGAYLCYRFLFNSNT
Briefly: inhibition of PTP1B (stated in text, method not given). The format is biochemical. The settings on record: read-out: active inhibitor of PTP1B (potency, type not given).

The target in assay [2] is T3, GST-PTP1B Mutated enzyme (Ser215) (Homo sapiens, UniProt P18031, C215S).
T3 construct: made in house; host or cells: bacteria (DH5α named for the transformation; E. coli stated for the wild-type fusion)
T3 sequence (P18031 1-320 C215S): T1 sequence (P18031 1-320) with C215S
Briefly: GST-PTP1B SPA binding assay, mutated (Ser215) enzyme; competition with tritiated BzN-EJJ-CONH2. The method, then:
as §1, §2, §3, §4, §5, §6, §7, §8, §9, §10, §11, §12, §13
11. […]
12. Percentage of inhibition is calculated accordingly. […]

Assay [3] addresses Human recombinant PTP1B, containing amino acids 1-320, Cys215Ser mutant, fused to GST enzyme (glutathione S-transferase) (human) (UniProt P18031). Briefly: SPA raw counts, mutant GST-PTP1B with tritiated BzN-EJJ-CONH2, no anti-GST antibody, no cold tripeptide, first duplicate.
For assay [4] the target is unchanged. Briefly: SPA raw counts, mutant GST-PTP1B with tritiated BzN-EJJ-CONH2, no anti-GST antibody, no cold tripeptide, second duplicate.
For assay [5] the target is unchanged. Briefly: SPA raw counts, mutant GST-PTP1B with tritiated BzN-EJJ-CONH2, anti-GST antibody present, no cold tripeptide, first duplicate.
For assay [6] the target is unchanged. Briefly: SPA raw counts, mutant GST-PTP1B with tritiated BzN-EJJ-CONH2, anti-GST antibody present, no cold tripeptide, second duplicate.
For assay [7] the target is unchanged. Briefly: GST-PTP1B SPA binding assay, competition with tritiated BzN-EJJ-CONH2, mutated (Ser215) enzyme.
The target of assay [8] is Human recombinant PTP1B, containing amino acids 1-320, fused to GST enzyme (glutathione S-transferase), wild type (active site cysteine 215) (human) (UniProt P18031). Briefly: GST-PTP1B SPA binding assay, competition with tritiated BzN-EJJ-CONH2, non-mutated (Cys215) enzyme.
Assay [9] addresses Human recombinant PTP1B, containing amino acids 1-320, Cys215Ser mutant, fused to GST enzyme (glutathione S-transferase) (human) (UniProt P18031). As to the kind of experiment: SPA raw counts of bound tritiated BzN-EJJ-CONH2 on mutant GST-PTP1B with cold tripeptide, first duplicate; number split over r10 and r11.
The target is the same in assay [10]. Briefly: SPA raw counts of bound tritiated BzN-EJJ-CONH2 on mutant GST-PTP1B with cold tripeptide, second duplicate; number split over r12 and r13.
Assay [11] concerns the target T4, Human recombinant PTP1B, containing amino acids 1-320, Cys215Ser mutant, fused to GST enzyme (glutathione … (human, UniProt P18031 1-320)).
T4 construct: ID No. 7 (cDNA); the protein in the assay has Ser at 215; also called GST-PTP-1B Cys215Ser mutant; mutant GST-PTP1B; not shown: N-terminal glutathione S-transferase carrier and the pGEX-2T linker residues
T4 sequence: T1 sequence (P18031 1-320) with C215S
As to the kind of experiment: GST-PTP1B SPA binding assay, competition with tritiated BzN-EJJ-CONH2, mutated (Ser215) enzyme.

The target of assay [12] is T5, Human recombinant PTP1B, containing amino acids 1-320, fused to GST enzyme (glutathione S-transferase), wild … (human, UniProt P18031 1-320).
T5 construct: ID No. 1, which is the DNA strand; GST is N-terminal (pGEX-2T); also called GST-PTP1B; GST-PTP-1B fusion protein; not shown: N-terminal glutathione S-transferase carrier and the pGEX-2T linker residues
T5 sequence: T1 sequence (P18031 1-320)
As to the kind of experiment: GST-PTP1B SPA binding assay, competition with tritiated BzN-EJJ-CONH2, non-mutated (Cys215) enzyme. The procedure: 1. 110 μl of assay buffer. 2. 10 μl. of 50 nM tritiated BzN-EJJ-CONH_2 in assay buffer (1X) @ 25° C. 3. 10 μl. of testing compound in DMSO at 10 different concentrations in serial dilution (final DMSO, about 5% v/v) in duplicate @ 25° C. 4. 10 μl. of 3.75 μg/ml purified human recombinant GST-PTP1B in enzyme dilution buffer. 5. The plate is shaken for 2 minutes. 6. 10 μl. of 0.3 μg/ml anti-glutathione S-transferase (anti-GST) rabbit IgG (Molecular Probes) diluted in antibody dilution buffer @ 25° C. 7. The plate is shaken for 2 minutes. 8. 50 μl. of protein A-PVT SPA beads (Amersham) @ 25° C. 9. The plate is shaken for 5 minutes. The binding signal is quantified on a Microbeta 96-well plate counter. 10. The non-specific signal is defined as the enzyme-ligand binding in the absence of anti-GST antibody. 11. 100% binding activity is defined as the enzyme-ligand binding in the presence of anti-GST antibody, but in the absence of the testing ligands with the non-specific binding subtracted. 12. Percentage of inhibition is calculated accordingly.

What is called inhibition is the change of the read-out against control, counted positive when it falls. A high value points to a strong effect.

Numbering of substitutions follows the chain as printed. Square brackets hold non-standard residues; d marks the D form. Ends that are not written are not given here. Peptide text beside a SMILES is read from it. * marks the point of attachment. F2Pmp = N[C@@H](Cc1ccc(C(F)(F)P(=O)(O)O)cc1)C(=O)O; Bz = O=C(c1ccccc1)*

`NC(=O)[C@H](Cc1ccc(C(F)(F)P(=O)(O)O)cc1)NC(=O)[C@H](Cc1ccc(C(F)(F)P(=O)(O)O)cc1)NC(=O)[C@H](CCC(=O)O)NC(=O)c1ccccc1` [Example 1, N-Benzoyl-L-glutamyl-[4-phosphono(difluoromethyl)]-L-phenylalanyl-[4-phosphono(difluoromethyl)]-L-phenlalanine Amide] (Bz-Glu-[F2Pmp]-[F2Pmp]-NH2): the results for the IC50 (in [1]; on PTP1B) were 14 nM and 5 nM, respectively.

In the case of `COc1cc(OC)c(OC)cc1CC/N=C\Cc1ncc[nH]1` [Imine, reference compound], the inhibition at 2 µM in assay [1] (at 2 μM, non-mutated (Cys215)) stood at 67%; in assay [2] (at 2 μM, mutated (Ser215)), 10%.

`Cc1cc(Cl)c2c(c1O)C(=O)C=CC2=O` [Quinone, reference compound]: the IC50 in assay [1] is 4000 nM; in assay [2] (mutated (Ser215) GST-PTP1B), over 100000 nM.

Take “N-(3,5-Ditritio)benzoyl-L-glutamyl-[4-phosphono(difluoromethyl)]-L-phenylalanyl-[4-phosphono(difluoromethyl)]-L-phenylalanineamide (peptide)”: the Counts (dpm), no antibody (- control), non-specific signal in assay [3] was found to be 252 dpm; in assay [4] it was 304 dpm. Further, the Counts (dpm), antibody (+ control), no competitor in assay [5] was determined as 5650 dpm; in assay [6] it was 6380 dpm.

On to “N-Benzoyl-L-glutamyl-[4-phosphono(difluoromethyl)]-L-phenylalanyl-[4-phosphono(difluoromethyl)]-L-phenylalanineamide (peptide)”, for which the IC50 in assay [7] is 8 nM. The IC50 in [8] was determined as 14 nM. In assay [9], the Counts (dpm) at 125 nM tripeptide was found to be 873 dpm and the Counts (dpm) at 250 nM tripeptide came out at 288 dpm. In assay [10], the Counts (dpm) at 62.5 nM tripeptide turned out to be 1110 dpm, the Counts (dpm) at 125 nM tripeptide worked out at 588 dpm and the Counts (dpm) at 250 nM tripeptide amounted to 273 dpm.

B1: DADE(F2PMP)L hexapeptide (T. Burke et al. Biochem. Biophys. Res. Comm. 204, 129, (1994)) (peptide)
peptide: DADE[F2Pmp]L
notes: Terminal caps, if any, stand only in a structure drawing that is not in the text; also called hexamer peptide containing the phosphotyrosyl mimetic F2Pmp
In the case of B1, the results for the IC50 in assay [11] and in assay [12] were 100 nM and 400 nM, respectively.

The record behind these values is US6348572B1, “Ligands for phosphatase binding assay” (Merck Frosst Canada & Co., priority 1996, dated 2002).
